According to patent publication US20260258115A1 (MAPP BIOPHARMACEUTICAL, published 2026):

Columns and labels:
RSV F on RSV-A2 virus = RSV F on RSV-A2 virus (Respiratory syncytial virus, RSV-A2, UniProt P03420 26-574); assay: cell-based or functional assay
[1] = biological target: RSV postfusion F (postF), F ΔFP (Respiratory syncytial virus, UniProt P03420 26-513); assay: BLI, IgG on anti-human IgG sensor, 100 nM antigen
[2] = biological target: RSV prefusion F (preF), DS-Cav1 (Respiratory syncytial virus, UniProt P03420 26-513); assay: BLI, IgG on anti-human IgG sensor, 100 nM antigen

| Binder | Neutralization IC50 (RSV subtype A) (RSV F on RSV-A2 virus) [µg/mL] | Kd [1] [nM] | Kd [2] [nM] |
| --- | --- | --- | --- |
| ADI-41600 (antibody, V domains shown, also called Ab 874; Antibody Number 874) VH: EVQLLESGGNMVQPGKSLRLSCAASGFTFSNYGMHWVRQAPGKGLEWVAVISKDGNNEHYADSVRARFTVSRDNSKNTLFLQMNSLRPEDTAVYYCAIGGLSGSYFGEYFQHWGRGTLVTVSS VL: DIQMTQSPSSMSASLGDRVTITCRASQGISTWLAWYQQKPGEAPKLLIYAAFGLQSGVPSRFSGSGSGTDFTLTINNLQPEDFATYYCQQAISFPFTFGGGTKVEIK | > 25 | 0.755 | 4.93 |
| ADI-41596 (antibody, V domains shown, also called Ab 870; Antibody Number 870) VH: QVQLQQWGAGLLKPSETLSLTCAVYGDSFSGYFWTWIRQPPGKGLEWIGEINLSGSTNYNPSLKSRVTILVDTSKNQFSLKLSSVTAADTAVYYCARGLHVSDDQDSSGYYFHPGSFDYWGQGTLVTVSS VL: not shown | 0.0537 | 0.437 | 0.305 |
| ADI-41593 (antibody, V domains shown, also called Ab 867; Antibody Number 867) VH: QVQLVQSGVEVKKPGESLKISCKGSGYSFTNYWIAWVRQMPGKGLEWMGIIYPGDSDTRYSPSFQGQVTISADKSISTAYVQWSSLKASDTAIYYCARGDILTNSGPDAFDIWGQGTMVTVSS VL: DIQMTQSPSSFSASTGDRVTITCRASQAISSYLAWFQQKPGKAPKLLIYAASTLQSGVPSRFSGSGSGTDFTLTISCLQSEDFATYYCQQYYSYPLTFGGGTKVEIK | > 25 | 0.53 | 1.83 |
| ADI-41587 (antibody, V domains shown) VH: QVQLVQSGAGLLKPSETLSLTCAVYGGSFSGYSWSWIRQPPGKGLEWIGEINYSVSTSYNSSLKSRVSISVDTSKNQFSLKLTSVTAADTAVYYCARVGGAVADWGQGTLVTVSS VL: not shown | 0.664 | 2.09 | 1.4 |
| ADI-41602 (antibody, V domains shown, also called Ab 876; Antibody Number 876) VH: EVQLQESGPGLVKPSETLSLTCTVSGGSLSGYYWSWIRQPPGKGLEWIGYIYHSGSTNYNPSLESRVTISVDTSKNQFSLKVNAVTAADTAVYYCAKVERLLRFDPWGQGTLVTVSS VL: QSVLIQPASVSGSPGQSITISCIGSSSDVGGYNYVSWYQHYPGKAPKLMIYDVSNRPSGVSNRFSGSKSGNTASLTISGLQAEDEADYYCSSYTSSTSYVFGTGTKVTVL | > 25 | 0.455 | 2.85 |
| ADI-41592 (antibody, V domains shown, also called Ab 866; Antibody Number 866) VH: EVQLVESGSELKKPGASVKVSCKASGYTFRTYVMNWVRQAPGQGLEWMGWINTNTGNPTYAQGFTGRFVFSLDTSVSTAYLQISSLKAEDTAVYYCARESIDDYDSSGYGRTFDYWGQGTLVTVSS VL: SYELTQPPSVSVSPGQTASIPCSGDKVGKTYVYWYQQTPGQSPGLVIYQDTKRPSGIPERFSGSSSGNTATLTISGTQTMDEADYYCQAWDTSTASYVFGTGTKLTVL | > 25 | 0.44 | 3.74 |
| ADI-41603 (antibody, V domains shown, also called Ab 877; Antibody Number 877) VH: EVQLVESGGGLVKPGRSLRLSCTTSGFTFGDYAMSWFRQAPGKGLEWVGFIRSKPYGGATAYAASVRGRFTISNDDSKSIAYLQMESLKIEDTAVYYCARDYDDFFFYDYWGQGTLVTVSS VL: DIRMTQSPATLSVSPGERATLSCRASENIYSNLAWYQQKPGQAPRLLIYGASTRATGLPARFSGSGSGTEFTLTISSLQSEDFAVYYCQQYNNWPAFGGGTKVEIK | > 25 | 0.49 | 3.49 |
| ADI-41588 (antibody, V domains shown) VH: QVQLVESGPTLVKPTQTLTLTCTFSGFSLSTNGVGVAWIRQPPGKALEWLAIIYWDDDKRYSPSLKSRLTITKDTSKNQVVLTVTDMDPVDTATYYCAHTIGVPAATRFDYWGQGTLVTVSS VL: not shown | > 25 | 0.505 | 3.33 |
